Assay results: paper PMC5861439

Molecular target: Saccharomyces cerevisiae Asf1 (2–169) (Saccharomyces cerevisiae) (UniProt P32447)
Assay: MST

Sequence of Saccharomyces cerevisiae Asf1 (2–169) (Saccharomyces cerevisiae) (P32447 2-169): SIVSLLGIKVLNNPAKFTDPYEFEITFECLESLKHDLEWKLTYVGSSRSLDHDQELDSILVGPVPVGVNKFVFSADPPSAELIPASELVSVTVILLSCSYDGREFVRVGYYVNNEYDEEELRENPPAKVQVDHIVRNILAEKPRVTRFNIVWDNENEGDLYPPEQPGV
Sequence of full-length Saccharomyces cerevisiae Rtt109 (Q07794 whole entry): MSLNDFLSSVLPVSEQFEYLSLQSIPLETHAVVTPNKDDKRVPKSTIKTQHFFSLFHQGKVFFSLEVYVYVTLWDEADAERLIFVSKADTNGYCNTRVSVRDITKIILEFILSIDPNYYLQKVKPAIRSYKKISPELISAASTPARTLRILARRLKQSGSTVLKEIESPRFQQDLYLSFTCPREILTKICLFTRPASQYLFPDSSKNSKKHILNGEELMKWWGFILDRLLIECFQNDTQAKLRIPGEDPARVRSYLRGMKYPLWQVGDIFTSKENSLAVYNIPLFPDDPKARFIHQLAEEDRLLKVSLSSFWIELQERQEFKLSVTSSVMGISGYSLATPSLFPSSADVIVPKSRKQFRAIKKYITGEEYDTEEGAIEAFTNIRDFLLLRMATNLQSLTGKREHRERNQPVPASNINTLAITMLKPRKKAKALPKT
Sequence of Rtt109−Vps75_(2) complex (Q07794 whole entry): as above
Sequence of Rtt109−Vps75_(2) complex (P53853 whole entry): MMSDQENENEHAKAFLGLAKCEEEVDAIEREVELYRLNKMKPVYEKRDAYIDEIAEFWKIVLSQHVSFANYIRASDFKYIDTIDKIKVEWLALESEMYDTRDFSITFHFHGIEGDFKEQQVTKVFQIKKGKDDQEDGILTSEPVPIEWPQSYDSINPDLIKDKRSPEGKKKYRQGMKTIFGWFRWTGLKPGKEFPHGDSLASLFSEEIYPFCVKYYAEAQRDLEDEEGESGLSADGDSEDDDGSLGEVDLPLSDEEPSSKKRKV

| Kd [µM] | Substance |
| --- | --- |
| 7.63 | full-length Saccharomyces cerevisiae Rtt109 (from UniProt Q07794 1-436) (enzyme) |
| 42.7 | Rtt109−Vps75_(2) complex (from UniProt Q07794;P53853) |
